Here are results for four substances from article PMC11344771.

The target in test [1] is rhodamine-labelled SemD (SemD^Rhod) (Chlamydia pneumoniae). As to the kind of experiment: recruitment to giant unilamellar vesicles (confocal microscopy); PS-containing GUVs with bound SemD^Rhod or mutSemD^Rhod (1 µg) and GFP-fused partner (1 µg) in PBS, room temperature, imaged 5-20 min; fluorescence intensity ratio of GUV perimeter to background.
Test [2] concerns the target BR-GBD fused to GFP (BR-GBD_(GFP-His)) (Rattus norvegicus) (UniProt O08816). Nature of the test: pull-down; GFP-Trap agarose, BR-GBD_(GFP-His) or GFP alone as bait, equimolar test protein, 5 min RT then 30 min 4 °C, washed 6x with 10 mM Tris-HCl, 200 mM NaCl, pH 8.5; immunoblot, Elution:FT ratio normalised to the bait. (Immunoblotting shows a protein as a band on a membrane.)

Test [3] has the same target. As to the kind of experiment: pull-down; GFP-Trap agarose, BR-GBD_(GFP-His) as bait, equimolar SemDΔAPHHis and Cdc42_(GppNHp) added simultaneously; immunoblot, normalised Elution:FT ratio.
Test [4] addresses N-WASP BR-GBD_(142-273) (Rattus norvegicus) (UniProt O08816). Nature of the test: SEC-SAXS; Superdex200 increase 10/300 GL, PBS pH 8.5 + 3 % glycerol, 20 °C; 8 mg/ml SemDΔAPH, 10 mg/ml BR-GBD, 8 mg/ml SemDΔAPH + BR-GBD, 3.3 mg/l SemDΔAPH + SNX9-SH3. (SEC sorts molecules by how far they enter the pores of the column.)
In test [5] the target is SNX9-SH3GFP. Nature of the test: GUV membrane recruitment assay, confocal fluorescence quantification. The conditions noted are these: PS-containing GUVs, read off a plot.

Some results are limits rather than exact numbers.

BR-GBD fused to GFP (BR-GBD_(GFP-His)) (Rattus norvegicus), sequence (O08816 142-273): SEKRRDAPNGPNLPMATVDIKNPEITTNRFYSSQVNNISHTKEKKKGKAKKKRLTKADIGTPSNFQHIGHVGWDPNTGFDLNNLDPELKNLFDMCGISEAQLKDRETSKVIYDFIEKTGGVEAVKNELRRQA
BR-GBDΔGFP (lacking the BR domain), sequence (O08816 other isoform, or with tags, fused parts or gaps mutant): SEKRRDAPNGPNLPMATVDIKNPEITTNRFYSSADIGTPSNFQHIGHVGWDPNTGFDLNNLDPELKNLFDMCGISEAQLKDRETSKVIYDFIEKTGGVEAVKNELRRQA
BR-GBD fused to GFP (BR-GBD_(GFP-His)), sequence (O08816 142-273): as the sequence (O08816 142-273) above
N-WASP BR-GBD_(142-273) (Rattus norvegicus), sequence (O08816 142-273): as above

“BR-GBDΔGFP (lacking the BR domain) (from UniProt O08816 142-273) (domain or fragment)”: the fold lower fluorescence intensity ratio than BR-GBDGFP (after 20 min) in test [1] is above 18 fold.

The stoichiometry N is a count of units in the complex or per binding partner. SemDΔAPH_(67-382) (domain or fragment): the normalised Elution:FT ratio in test [2] was determined as 100%. Moreover, in test [3], the normalised Elution:FT ratio (with equimolar Cdc42 (GppNHp)) was found to be 100%. The stoichiometry N in test [4] was found to be 1.

Turning to “rhodamine-labelled SemD (SemD^Rhod) R91V; P92A; R94V; P95A; P97V; P98A; P99V; P100A; R117V; P119A; P121V; P122A”, the response in test [5] (5 min, parent: est. 950) is 1.1; in test [5] (20 min, parent: est. 830), 1.1.

Turning to “BR-GBD fused to GFP (BR-GBD_(GFP-His)) (from UniProt O08816 142-273) (domain or fragment)”, the fluorescence intensity ratio (GUV perimeter to background) in test [1] is 44.5 fold.
